Assay results taken from patent US20180353525A1 (SOCPRA SCIENCES SANT ET HUMAINES S E C, published 2018).

How the values were obtained:
[1] = target: T1, receptor for activated C kinase (RACK1), endogenous, HT-1080 cells (human, UniProt P63244 1-317); assay: cell-based or functional assay
[2] = target: T1, receptor for activated C kinase …; assay: cell-based or functional assay; remark: listed apart in the source

Row | Binder | IC50 of doxorubicin, HT1080, MTT viability, C2 0.25 µM, 1% O2 (Experiment 1) [1] [nM] | IC50 of doxorubicin, HT1080, MTT viability, C2 0.25 µM, 21% O2 (Experiment 1) [1] [nM] | IC50 of doxorubicin, HT1080, MTT viability, C2 5.00 µM, 1% O2 (Experiment 1) [1] [nM] | IC50 of doxorubicin, HT1080, MTT viability, C2 5.00 µM, 21% O2 (Experiment 1) [1] [nM] | IC50 of doxorubicin, HT1080, MTT viability, C2 0.25 µM, 1% O2 (Experiment 2) [2] [nM] | IC50 of doxorubicin, HT1080, MTT viability, C2 0.25 µM, 21% O2 (Experiment 2) [2] [nM] | IC50 of doxorubicin, HT1080, MTT viability, C2 20.0 µM, 1% O2 (Experiment 2) [2] [nM] | IC50 of doxorubicin, HT1080, MTT viability, C2 20.0 µM, 21% O2 (Experiment 2) [2] [nM] | IC50 of doxorubicin, HT1080, MTT viability, C2WY→AA 0.25 µM, 1% O2 (Experiment 1) [1] [nM] | IC50 of doxorubicin, HT1080, MTT viability, C2WY→AA 0.25 µM, 21% O2 (Experiment 1) [1] [nM] | IC50 of doxorubicin, HT1080, MTT viability, C2WY→AA 5.00 µM, 1% O2 (Experiment 1) [1] [nM] | IC50 of doxorubicin, HT1080, MTT viability, C2WY→AA 5.00 µM, 21% O2 (Experiment 1) [1] [nM] | IC50 of doxorubicin, HT1080, MTT viability, C2WY→AA 0.25 µM, 1% O2 (Experiment 2) [2] [nM] | IC50 of doxorubicin, HT1080, MTT viability, C2WY→AA 0.25 µM, 21% O2 (Experiment 2) [2] [nM] | IC50 of doxorubicin, HT1080, MTT viability, C2WY→AA 20.0 µM, 1% O2 (Experiment 2) [2] [nM] | IC50 of doxorubicin, HT1080, MTT viability, C2WY→AA 20.0 µM, 21% O2 (Experiment 2) [2] [nM]
1 | RMWYNFDHNY [C2 peptide (RMWYNFDHNY)] | 39.7 | 12.2 | 39.1 | 17.2 | 30.6 | 11.7 | 15.7 | 10 | – | – | – | – | – | – | – | –
2 | RMAANFDHNY [C2WY→AA peptide (RMAANFDHNY)] | – | – | – | – | – | – | – | – | 99.1 | 21.3 | 76.4 | 16.4 | 98.9 | 12.5 | 74.3 | 10.9
